System: MS2 coat protein
Experiment: apparent KD of MS2 coat protein; designed switch direction (-1 OFF switch, 1 ON switch): 1; higher = weaker reporter binding
Outline: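 For each design, the apparent KD is the median over clusters of curves fitted to normalised cluster fluorescence. Clusters held RNA switches with common flanks, transcribed on Illumina chips by stalled E. coli RNA polymerase. These were titrated with SNAP-549-labelled MS2 coat protein, doubling from 0.7 or 1.5 nM to 3 µM, without input, with 200 uM small-molecule ligand, or with an oligonucleotide input.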

[1] = input ligand: microRNA oligo, concentration not stated
[2] = Eterna round: R95, input ligand: FMN 200 uM
[3] = Eterna round: R95, input ligand: microRNA oligo, concentration not stated
[4] = Eterna round: R95, input ligand: none

AGGCUGAGUCGAGGAUAUUAUGGAUCCUCUAAUACAUGAGGAUCACCCAUGUAAUUAAUUAUACAUGAGAAGGUGACUCAGCCA [SSNG2/12-B3] (Eterna round: R96, puzzle: Same State NG 2)
apparent KD of MS2 coat protein (input ligand: FMN 200 uM): 0.612 µM | apparent KD of MS2 coat protein [1]: 0.129 µM | apparent KD of MS2 coat protein (input ligand: none): 0.28 µM

AGGGAGGAUGCAGGAUAUAUAAGACAUGAGGAUCACCCAUGUACCUCGUGGAGAAGAAAGGAGAGAUAGAAGGGUAGUGAGGAA [Default title] (Eterna round: R96, puzzle: Same State NG 2)
apparent KD of MS2 coat protein (input ligand: FMN 200 uM): 0.285 µM | apparent KD of MS2 coat protein [1]: 0.2 µM | apparent KD of MS2 coat protein (input ligand: none): 0.258 µM

AGGGCCGCGGCACAGGAUAUGCACAGGUUCACAUGAGGAUCACCCAUGUGCUCUAGAUAGCUUGAGCAGAAGGGUGUCAUGGUAA [Beadi] (puzzle: Same State 2)
apparent KD of MS2 coat protein [2]: 0.0163 µM | apparent KD of MS2 coat protein [3]: 0.0182 µM | apparent KD of MS2 coat protein [4]: 0.0279 µM

AGUCCAGCAAGAGCUGGACAAAAGCAUGUACAUGAGGAUCACCCAUGUCAUGUACAAGCUUUUUGCUCGUCUUAAAA [Mat - hsa-mir-208a - Mod of JL - D3] (puzzle: Sensor for hsa-mir-208a)
apparent KD of MS2 coat protein [2]: 0.456 µM | apparent KD of MS2 coat protein [3]: 0.016 µM | apparent KD of MS2 coat protein [4]: 0.729 µM

AGUCCAGCCAGAGCUGGACAAAAGCAUGUACAUGAGGAUCACCCAUGUCAUGUACAAGCUUUUUGCUCGUCUUAAUA [Mat - hsa-mir-208a - Mod of JL - D37] (puzzle: Sensor for hsa-mir-208a)
apparent KD of MS2 coat protein [2]: 0.632 µM | apparent KD of MS2 coat protein [3]: 0.0154 µM | apparent KD of MS2 coat protein [4]: 0.621 µM

AGUCCAGCCAGAGCUGGACAAAAGCAUGUACAUGAGGAUCACCCAUGUUCAUGUACAAGCUUUUUGCUCGUCAAAAG [Mat - hsa-mir-208a - Mod of JL - 69] (puzzle: Sensor for hsa-mir-208a)
apparent KD of MS2 coat protein [2]: 0.304 µM | apparent KD of MS2 coat protein [3]: 0.0177 µM | apparent KD of MS2 coat protein [4]: 0.233 µM

AGUCCAGCCUGAGCUGGACAAAAGCAUGUACAUGAGGAUCACCCAUGUCAUGUACAAGCUUUUUGCUCGAAAUAAUA [Mat - hsa-mir-208a - Mod of JL - D32] (Eterna round: R96, puzzle: Sensor for hsa-mir-208a)
apparent KD of MS2 coat protein (input ligand: FMN 200 uM): 0.626 µM | apparent KD of MS2 coat protein [1]: 0.0144 µM | apparent KD of MS2 coat protein (input ligand: none): 0.561 µM

AGUCCAGCCUGAGCUGGACAAAAGCAUGUACAUGAGGAUCACCCAUGUCAUGUACAAGCUUUUUGCUCGAAAUAAUA [Mat - hsa-mir-208a - Mod of JL - D32] (puzzle: Sensor for hsa-mir-208a)
apparent KD of MS2 coat protein [2]: 0.653 µM | apparent KD of MS2 coat protein [3]: 0.0146 µM | apparent KD of MS2 coat protein [4]: 0.938 µM

AGUCCAGCCUGAGCUGGACAAAAGCAUGUACAUGAGGAUCACCCAUGUCAUGUACAAGCUUUUUGCUCGUAAUAAUA [Mat - hsa-mir-208a - Mod of JL - D31] (puzzle: Sensor for hsa-mir-208a)
apparent KD of MS2 coat protein [2]: 0.301 µM | apparent KD of MS2 coat protein [3]: 0.0124 µM | apparent KD of MS2 coat protein [4]: 0.477 µM

AGUCCAGCCUGAGCUGGACAAAAGCAUGUACAUGAGGAUCACCCAUGUCGUGUACAAGCUUUUUGCUCGUCUUAAUA [Zipper 49 - 4] (puzzle: Sensor for hsa-mir-208a)
apparent KD of MS2 coat protein [2]: 0.285 µM | apparent KD of MS2 coat protein [3]: 0.0135 µM | apparent KD of MS2 coat protein [4]: 0.311 µM

AGUCCAGCCUGAGCUGGACAAAAGCGUGUACAUGAGGAUCACCCAUGUUCAUGUACAAGCUUUUUGCUCGUCUUAAA [Zipper 52 - 6] (puzzle: Sensor for hsa-mir-208a)
apparent KD of MS2 coat protein [2]: 0.0257 µM | apparent KD of MS2 coat protein [3]: 0.02 µM | apparent KD of MS2 coat protein [4]: 0.127 µM

AGUCCAGCGAAAGCUGGACAGAAGCAUGUACAUGAGGAUCACCCAUGUUCAUGUACAAGCUUUUUGCUCGUCUUAAA [JL mod - D95 - 1] (puzzle: Sensor for hsa-mir-208a)
apparent KD of MS2 coat protein [2]: 0.476 µM | apparent KD of MS2 coat protein [3]: 0.0149 µM | apparent KD of MS2 coat protein [4]: 0.418 µM

AGUGGUGGUGCAGGAUAUGCCUCAAAAGCAUGGGUAGAAGGGCAAUACAAAGAAACUCUGACAUGAGGAUCACCCAUGUAGCAA [Eternabot solution 43] (Eterna round: R96, puzzle: Same State NG 1)
apparent KD of MS2 coat protein (input ligand: FMN 200 uM): 0.449 µM | apparent KD of MS2 coat protein [1]: 0.241 µM | apparent KD of MS2 coat protein (input ligand: none): 0.395 µM

AGUUGUGGGAAACUAUAGCAGACGCUCGUACAUGAGGAUCACCCAUGUCUUGUAGGAGCUGUUUGCUCGUUUUAUGG [ak 1 mod of one Eli's designs.] (puzzle: Sensor for hsa-mir-208a)
apparent KD of MS2 coat protein [2]: 0.0628 µM | apparent KD of MS2 coat protein [3]: 0.0501 µM

AUAAAACAUGAGGAUCACCCAUGUUAACAAAGUCGAGGAUAUGGGCAAAUAAAAUAAGAACCAGAAGGCGAAUAAU [salish99_ss1_r3_045] (puzzle: Same State 1)
apparent KD of MS2 coat protein [2]: 0.0168 µM | apparent KD of MS2 coat protein [3]: 0.0279 µM | apparent KD of MS2 coat protein [4]: 0.0277 µM

AUAAAAGAAAGAAACACAUGAGGAUCACCCAUGUAACGACUACAGGAUAUGCUGCACAGUCCAAAGCAGAAGGGUGGUCAAAAC [Qulaesed] (Eterna round: R96, puzzle: Same State NG 3)
apparent KD of MS2 coat protein (input ligand: FMN 200 uM): 0.28 µM | apparent KD of MS2 coat protein [1]: 0.111 µM | apparent KD of MS2 coat protein (input ligand: none): 0.102 µM

AUAAACAGGCUAGGAUAUCCGGAAACUACAGGACACGACCCUGUGGACAUGAGGAUCACCCAUGUGGAGAAGGAGCCACAUGAA [Onvete] (Eterna round: R96, puzzle: Same State NG 2)
apparent KD of MS2 coat protein (input ligand: FMN 200 uM): 0.0314 µM | apparent KD of MS2 coat protein [1]: 0.223 µM | apparent KD of MS2 coat protein (input ligand: none): 0.145 µM

AUAAGUUCGAUGCUCGUCUCUCCGUACAAACAUGAGGAUCACCCAUGUGAUUGGACAAAAGCCCAAUCAGUAUGGCC [Cebeince] (puzzle: Sensor for hsa-mir-208a)
apparent KD of MS2 coat protein [2]: 0.0359 µM | apparent KD of MS2 coat protein [3]: 0.0214 µM | apparent KD of MS2 coat protein [4]: 0.0409 µM

AUAAUACAUGAGGAUCACCCAUGUCAACAAAGUCGAGGAUAUGGGCAAAUAAAAUAAGAACCAGAAGGCGAAUAAU [salish99_ss1_r3_046] (puzzle: Same State 1)
apparent KD of MS2 coat protein [2]: 0.0343 µM | apparent KD of MS2 coat protein [3]: 0.359 µM | apparent KD of MS2 coat protein [4]: 0.24 µM

AUACCAUCAGGAGGAUAUGGCACCUUAUUGGUGCCAGAAGGUCUAACAUGAGGAUCACCCAUGUGGGAGUGGUCUAAUGACCAC [Eli NG1ss - 86] (Eterna round: R96, puzzle: Same State NG 1)
apparent KD of MS2 coat protein (input ligand: FMN 200 uM): 0.0737 µM | apparent KD of MS2 coat protein [1]: 0.0723 µM | apparent KD of MS2 coat protein (input ligand: none): 0.091 µM

AUAGUUUCCGAAGGAUAUGAUGAGGAUCACCCAUCAGAAGGUUGGCUAUUGGGCUGACAUGAGGAUCACCCAUGUUUCGGUGUU (Eterna round: R96, puzzle: Same State NG 1)
apparent KD of MS2 coat protein (input ligand: FMN 200 uM): 0.033 µM | apparent KD of MS2 coat protein [1]: 0.0291 µM | apparent KD of MS2 coat protein (input ligand: none): 0.0414 µM

AUAUAACAUGAGGAUCACCCAUGUCUCUAAAGUCGAGGAUAUGGGCAGGUUAUAUCCGAACCAGAAGGCGGGUUAU [SS1 Teenbexe 8] (Eterna round: R96, puzzle: Same State 1)
apparent KD of MS2 coat protein (input ligand: FMN 200 uM): 1.02 µM | apparent KD of MS2 coat protein [1]: 0.287 µM | apparent KD of MS2 coat protein (input ligand: none): 0.554 µM

AUAUAACAUGAGGAUCACCCAUGUCUCUAAAGUCGAGGAUAUGGGCAGGUUAUAUCCGAACCAGAAGGCGGGUUAU [SS1 Teenbexe 8] (puzzle: Same State 1)
apparent KD of MS2 coat protein [2]: 0.177 µM | apparent KD of MS2 coat protein [3]: 0.123 µM | apparent KD of MS2 coat protein [4]: 0.146 µM

AUAUGAGGAGCAGGAUAUGCGAAGAAGAAAGAAGUAGAAGGGCUCAUGGGACGACAUGAGGAUCACCCAUGUACUUCCCGAUGA [AK SSNG1-V2-7] (Eterna round: R96, puzzle: Same State NG 1)
apparent KD of MS2 coat protein (input ligand: FMN 200 uM): 0.0246 µM | apparent KD of MS2 coat protein [1]: 0.0266 µM | apparent KD of MS2 coat protein (input ligand: none): 0.0377 µM

AUCCGAACCAUAGGAUAUACUGGCCUCGGGCCAGUAGAAGGGUGGGACAUGAGGAUCACCCAUGUAAAGCACAAUCAGUGCAAA [Ceramace] (Eterna round: R96, puzzle: Same State NG 1)
apparent KD of MS2 coat protein (input ligand: FMN 200 uM): 0.167 µM | apparent KD of MS2 coat protein [1]: 0.119 µM | apparent KD of MS2 coat protein (input ligand: none): 0.151 µM

AUGAAGAAUUAAGGAUAUUGAUUACAUAUGUUUAACAUGAGGAUCACCCAUGUGGGUUGCGGUAUCGAGAAGGUAAAUUAAAAG [Mat - same State NG 2 - JL mod - D88] (Eterna round: R96, puzzle: Same State NG 2)
apparent KD of MS2 coat protein [1]: 0.156 µM

AUGACAUGCACAGGAUAUUAGGCGCAGUACAGAUAAGAAGGGUGGAUCAGCAUACAUGAGGAUCACCCAUGUUGUUGUAACAUG [Same State 1 S2] (Eterna round: R96, puzzle: Same State NG 1)
apparent KD of MS2 coat protein [1]: 0.252 µM

AUGAUUAAUGCAGGAUAUGAUUAACAUGAGGAUCACCCAUGUGGUGUUGUGAGUAAGGAGAGUGAUCAGAAGGGCAUUUUUUUU [JMF's solution 34] (Eterna round: R96, puzzle: Same State NG 2)
apparent KD of MS2 coat protein (input ligand: FMN 200 uM): 0.731 µM | apparent KD of MS2 coat protein [1]: 0.43 µM | apparent KD of MS2 coat protein (input ligand: none): 0.701 µM
